Experimental data published in the nanobody polyreactivity screen of Harvey et al. (2022).

Test: yeast display, Sf9 membrane polyspecificity reagent, FACS + sequencing; frameworks hold sequencing errors
In short: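 A synthetic nanobody library was expressed on Saccharomyces cerevisiae BJ5465 by galactose induction for 36–48 hours. The library was stained for 1 hour at 4 °C with 10% biotinylated, detergent-solubilized Sf9 membrane reagent and enriched with streptavidin microbeads before FACS. Low and high (top ~1%) gates were set on anti-HA fluorescence for expression and streptavidin fluorescence for reagent binding, and each polyreactivity label reflects the gate of origin.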

| Sequence | polyreactivity (PSR sort gate) |
| --- | --- |
| QVQLVESGRGLVQAGGSLRLSCAASGSIFTSYVMGWYRQAPGKERELVAAISQTGSSTYYADSVKGRFTISRDNAKNTVYLQMNSLKPEDTAVYYFAARRSRGSVRNYDYWGQGTKVTVSS | high polyreactivity |
| QVQLVESGGGLVQAGGSLRLSCAASGRTFTHYAMGWYRQAPGKERELVAAITASGGSTYYADSVKGRFTISRDNAQNTVYLQMNSLKPEDTAVYYCATEANQRTLNDTVKDYDYWGQGTQVTVSS | low polyreactivity |
| QVQLVESGGGLVQAGGSLRLSCAASGSTFTYYAMGWYRQAPGKERELVAAISRRGGSTYYADSVKGRFTISRDNAKNTVYLQMNSLKPEDTAVYYCAAASHGRFYYWGQGTQVTVSS | high polyreactivity |
| QVQLVESGGGLVQAGGSLRLSCAASGFTFPWYTMGWYRQAPGKERELVAAINSRGGSTYYADSVKGRFTISRDNAKNTVYLQMNSLKPEDTAVYYCATRSFGRMDYWGQGTQVTVSS | high polyreactivity |
| QVQLVESGGGLVQAGGSLRLSCAASGFTFQYKAMGVYRQAPGQERELVAAISRGGGRTYYADSVKGRFTISRDNAKNTVYLQMNSLKPEDTAVYYCNVLNYSSRHYLFSYDYWGQGTQVTVSS | high polyreactivity |
| QVQLVESGGGLVQAGGTLRLTCAASGSIFSAYAMGWYRQEPGKEREFVAAITRRGGNTYYADSVKGRFTISRDNAKNTVYVQMNSLKPEDTAVYYCAAVAGGGPFDYWGQGTQVTVSS | low polyreactivity |
| QFQLVESGGGLVQAGGSLRLSCAASGITFQYYAMGWYRQAPGKERDFVAAISWRSGRTYYADSVKGRFTISRDNAKNTVYLQMNSLKPEDTEVYYCAAVVHIQRSTRDYWGQGTQVTVSS | high polyreactivity |
| QVQLVESGGGLVQAGGSLRLSCAASGFTFRKYVMGWYRQAPGKERELVAGISRSGSRTYYADSVKGRFTISRDNAKNTVYLQMNSLKPEDTAVYYCAADAAHSEYDYWGQGTQVTVSS | high polyreactivity |
| QVQLVESGGGLVQAGGSLRLSCAASGSTFHLYTMGWSRQAPGKERELVAGISRRGGTTYYADSVKGRFTISRDNAKNTVYLQMNSLKPEDTAVYYCAAVYRTYGIGPNNYWGQGTQVTVSS | high polyreactivity |
| QVQLVESGGRLVQSGGSLRLSCAASGSIFVWNAMGWYRQAPGKERELVAAISYDGGSTYYADSVKGRFTISRDNAKNTVYLQMNSLKPEDTAVYYCAFEYVYWLSWYFQYDYWGQGTQVTVSS | low polyreactivity |
| QVQLVESGGGLVQAGGSLRLSCAASRSTFYIYDMGWYRQAPGKESELVARISGSGVSTYYADSVKGRFTISRDNAKNTVYLQMNSLKPEDTAVYYSAADGISHWLYRYDYWGQGTQVTVSS | low polyreactivity |
| QVQLVESGGGLVQAGGSLRLSCAATGIILGPYAMGWYRPAPGKERELVAAISWRGGSTYNADSVKGRFTISRDNAKNTVYLQMNSLKPEDTAVYYCATASRTSRTGWAGYYCGQGTQVTVSS | high polyreactivity |
| QVQLVESGGGLVQAGGSLRLSCAASGNIFWWNAMGWYRQAPGKERELVAAITSDSTTYYADSVKGRFTISRDNAKNTVYFQMNCLKPEDTAVYYCAAYSYGGQGVDYGYWGQGTQVSVSS | low polyreactivity |
| QVQLVESGGGLVQAGGSLRLSCAASGSTFSSYVMGWYRQAPGKERELVAGITRGGRTYYADSVKGRFTISRDNAKNTGYLQMNSLKPEDTAVYYCAKDQGGVHELDYWGQGTQVTVSS | low polyreactivity |
| QVQHVESGGGLVQAGGSLRLSCAASGSTFPGYAMGWYRQAPGKERELVAAISKRGGSTRYADSVKGRFTISRDNAINTVYLQMNSLKPEDTAVYYCAASYSYSGSGGGYWGQGTQVTVSS | high polyreactivity |
| QVQLVESGGGLVQAGGSLRLSCAASGSILTPYAMGWYRQAPGKERELVAAISWGDGSTYYADSVKGRFTISRDNAKNTVYLQMNSLKPEDTAVYYCAAVSYYGVDQYRITVYTYEYWGQGTQVTVSS | low polyreactivity |

| Sequence | polyreactivity (PSR sort gate) |
| --- | --- |
| QVQLVESGGGLVQAGGSLRLSCAASGSTFEDYTLGGYRQATGKERELVAAINWDGSRTYYADSVKGRFTISRDNAKNTVYLQMNSLKPEDTAVYDCAAHSAYHRRRMYYWGQGTQVTVSS | high polyreactivity |
| QVQLVESGGGLVQAGGSLRLSCAASGRTFQFYTMGWYRQAPGKERELVAVITVSSAATFYADTVKGRFTISRDNAKNTVSLQMNSLKPEDTAVYYCAAGLVLIVGMDSWGQGTQVTVSS | low polyreactivity |
| QVQLVESGGGLVQAGGSLRLSCAASGFTFYDYAMGLYRQAPGKERELVAGISRDGGTTYYSDSVKGRFTISRDNAKNTVYLQMNSLKPEDTAVYYCAVDFLDWYQDYYITYDYWGQGSQVTVSS | low polyreactivity |
| QVQLVESGGGLVQAGGSLRLICAASVSTFRKYAMGRYRQAPGKEREFVAAISSSGGRTYYADSVKGRFTISRDNAKNTVYLQMNSLKPEDTAVYYCNAYFRYSYDYWGQGTQVTVSS | high polyreactivity |
| QVQLVESGGGLVQAGGSLRLSCAASGRTFWYNAMGWYRQAPGKEREFVAAITSSGGSTYYADSVKGRFTISRDNAKHTVFLQMNSLKPEDTAVYYCNKRPGPYKWPPRHDYWGQGTQVTVSS | low polyreactivity |
| QVQLVESGGGLVQAGGSLRLSCAASGSTFGHYAMGWYRQAPGKERELVAGITYTDNHELRRLCEGRFTISRDNAKNTVYLQMNSLKPEDTAVYYCNADDTYYPLGGITGYDYWGQGTQVTVSS | low polyreactivity |
| QLQLVESGGGLVQAGGSLRLSCAASGSIFQYNAMGLYRQAPGKRELVAALNRSGGSTYYGDSVKGRFTISRDNAKNTVDLQMNSLKPEDTAVYYCAAGVFYFLKYTVSFINYYWRQGTQVTVSS | high polyreactivity |
| QVQLVESGGGLVQAGGSLRLSCAASGRTVKPYAMGWYRQAPGKERELVAAISSGVSTHYADSVKGRFTISRDNAKNSVYLQMNSLKPEDTAVYYCDADDWVNYWFDYWGQGTQVTVSS | low polyreactivity |
| QVQLVESGGGLVQAGGSLRLSCAASGFTFQYYAMGWYRQAPGKERELVAAISRSGGSTYYADSVKGRFTISRDNAKNTVYLQMNSLKPEDTAVYYCNAGRYASGKYDYWGQGTQVTVSS | high polyreactivity |
| QVQLVESGGGLVQAGGSLRLSCAASGSIFTRNAMGWYRQAPGKERELVAAISWRGGITNYADSVKGRFTISRDNAKNTVYLQMNSLKPEDTAVYYCNKKRTRGGYGYWGQGTQVTVSS | high polyreactivity |
| QVQLVETGGGLVQAGGSLRLSCAASGSTFEYNAMGWYRQAPGKERALVAGISSGGSTYYADSVKGRFTISRDNAKNTVYLQMNSLKPEDTAVYYCATSEASFATWDRYTELDYWGQGTQVTVSS | low polyreactivity |
| QLQLVESGGGLVQAGGSLRLSCAASGRIFVANTMGWYRQAPGKERELVAAISRGSTYYADSVKGRFTISRDNAKNTVYLQMKSLKPEDTAVYYCAVKLAYGYYYWGLGTQVTVSS | high polyreactivity |
| PVQLVESGGGLVQAGGSLLLSCAASGRTFIYYAMGWYRQAPGKERELVAGISRHGGRTYYADSVKGRFTISRDNAKNTVYLQMNSLKPEDTAVYYCNAYPPSGHDYWGQGTQVTVSS | high polyreactivity |
| QVHLVESGGGLVQAGGSLRLSCAASGFTFVYYTMGWYRQAPGKERELVAAITYGGNTYYADSVKGRFTISRDNAKNTVYLQMNSLKPEDTAVYYCAARYISSYDWGQGTEVTVSS | high polyreactivity |
| QVQLVESGGGLVQEGGSLRLSCAASGRTLYRNAMGWYRQAPGKERELVAAISRSGGRTSYADSVKGRFTISRDNANNTVYLQMNSLIPEDTAVYYCNDVASHEFDYWGEGTQVTVSS | high polyreactivity |
| QVQLVESGGGLVQAGGSLRLSCAASGRIFFLYAMGWYRQAPGKERELVAAITKSGGSTYADSVKGRFTISLDNAKNTVYLQMNSLKPVDTAVYYCATENTECRDSGYIVKYGSDYWGQGTQVTVSS | low polyreactivity |
